Results reported in the supplement of paper PMC10065799, “High-throughput profiling of sequence recognition by tyrosine kinases and SH2 domains using bacterial peptide display” (eLife, 2023).

Assays:
c-Src SH2 = experiment: SH2 binding enrichment of the phosphorylated peptide, bacterial display (enrichment ratio); higher = better substrate or ligand; peptides without Tyr show the background
Grb2 SH2 = Grb2 SH2 (UniProt P62993); experiment: as above
SHP2-C SH2 = experiment: as above
FGFR3 = FGFR3 (UniProt P22607); experiment: phosphorylation enrichment, bacterial display (enrichment ratio); higher = better substrate or ligand; peptides without Tyr show the background
MERTK = MERTK (UniProt Q12866); experiment: as above
MERTK, sequence (Q12866 whole entry, looked up): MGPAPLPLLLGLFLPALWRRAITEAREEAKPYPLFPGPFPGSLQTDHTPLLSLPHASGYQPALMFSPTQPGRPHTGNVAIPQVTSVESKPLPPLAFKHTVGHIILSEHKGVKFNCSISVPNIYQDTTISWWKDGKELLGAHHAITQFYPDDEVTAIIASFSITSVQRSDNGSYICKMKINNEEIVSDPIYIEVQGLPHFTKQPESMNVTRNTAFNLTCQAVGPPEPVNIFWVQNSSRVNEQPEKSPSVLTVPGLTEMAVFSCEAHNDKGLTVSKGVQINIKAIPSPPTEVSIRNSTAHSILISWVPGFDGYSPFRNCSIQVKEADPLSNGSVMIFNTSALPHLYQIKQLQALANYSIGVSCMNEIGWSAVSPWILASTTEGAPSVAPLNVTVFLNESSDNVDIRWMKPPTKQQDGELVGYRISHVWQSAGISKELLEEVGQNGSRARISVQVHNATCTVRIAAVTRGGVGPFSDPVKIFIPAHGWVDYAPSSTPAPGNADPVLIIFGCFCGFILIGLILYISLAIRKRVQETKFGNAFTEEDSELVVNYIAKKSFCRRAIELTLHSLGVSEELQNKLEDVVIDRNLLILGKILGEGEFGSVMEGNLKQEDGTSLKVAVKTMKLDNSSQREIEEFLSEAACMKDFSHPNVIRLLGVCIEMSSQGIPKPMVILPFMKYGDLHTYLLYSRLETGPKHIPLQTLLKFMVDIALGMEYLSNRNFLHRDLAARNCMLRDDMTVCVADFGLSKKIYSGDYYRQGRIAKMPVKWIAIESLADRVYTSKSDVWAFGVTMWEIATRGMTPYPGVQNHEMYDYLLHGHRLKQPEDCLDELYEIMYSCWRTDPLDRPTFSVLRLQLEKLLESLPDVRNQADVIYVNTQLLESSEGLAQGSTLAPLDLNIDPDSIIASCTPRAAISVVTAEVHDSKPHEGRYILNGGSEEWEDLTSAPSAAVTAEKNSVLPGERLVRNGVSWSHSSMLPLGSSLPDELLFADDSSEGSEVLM

Fer (mouse) = experiment: as above
Fes = Fes (UniProt P07332); experiment: as above
c-Src = experiment: as above
Fyn = Fyn (UniProt P06241); experiment: as above
Fyn, sequence (P06241 whole entry, looked up): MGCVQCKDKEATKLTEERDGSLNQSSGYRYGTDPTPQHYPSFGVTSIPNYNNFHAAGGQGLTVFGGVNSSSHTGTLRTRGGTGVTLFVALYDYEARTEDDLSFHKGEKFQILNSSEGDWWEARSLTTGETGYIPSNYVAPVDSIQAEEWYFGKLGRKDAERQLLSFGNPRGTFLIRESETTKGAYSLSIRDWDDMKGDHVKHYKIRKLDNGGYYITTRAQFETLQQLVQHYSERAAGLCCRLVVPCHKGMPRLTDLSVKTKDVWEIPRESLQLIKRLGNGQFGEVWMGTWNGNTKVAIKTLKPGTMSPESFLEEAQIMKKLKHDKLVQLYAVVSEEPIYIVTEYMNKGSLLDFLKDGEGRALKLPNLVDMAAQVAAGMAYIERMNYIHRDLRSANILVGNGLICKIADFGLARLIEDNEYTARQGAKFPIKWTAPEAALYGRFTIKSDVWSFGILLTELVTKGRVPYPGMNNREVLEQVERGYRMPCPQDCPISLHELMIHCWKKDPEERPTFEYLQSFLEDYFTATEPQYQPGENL

Jak2 = Jak2 (UniProt O60674); experiment: as above
Jak2, sequence (O60674 whole entry, looked up): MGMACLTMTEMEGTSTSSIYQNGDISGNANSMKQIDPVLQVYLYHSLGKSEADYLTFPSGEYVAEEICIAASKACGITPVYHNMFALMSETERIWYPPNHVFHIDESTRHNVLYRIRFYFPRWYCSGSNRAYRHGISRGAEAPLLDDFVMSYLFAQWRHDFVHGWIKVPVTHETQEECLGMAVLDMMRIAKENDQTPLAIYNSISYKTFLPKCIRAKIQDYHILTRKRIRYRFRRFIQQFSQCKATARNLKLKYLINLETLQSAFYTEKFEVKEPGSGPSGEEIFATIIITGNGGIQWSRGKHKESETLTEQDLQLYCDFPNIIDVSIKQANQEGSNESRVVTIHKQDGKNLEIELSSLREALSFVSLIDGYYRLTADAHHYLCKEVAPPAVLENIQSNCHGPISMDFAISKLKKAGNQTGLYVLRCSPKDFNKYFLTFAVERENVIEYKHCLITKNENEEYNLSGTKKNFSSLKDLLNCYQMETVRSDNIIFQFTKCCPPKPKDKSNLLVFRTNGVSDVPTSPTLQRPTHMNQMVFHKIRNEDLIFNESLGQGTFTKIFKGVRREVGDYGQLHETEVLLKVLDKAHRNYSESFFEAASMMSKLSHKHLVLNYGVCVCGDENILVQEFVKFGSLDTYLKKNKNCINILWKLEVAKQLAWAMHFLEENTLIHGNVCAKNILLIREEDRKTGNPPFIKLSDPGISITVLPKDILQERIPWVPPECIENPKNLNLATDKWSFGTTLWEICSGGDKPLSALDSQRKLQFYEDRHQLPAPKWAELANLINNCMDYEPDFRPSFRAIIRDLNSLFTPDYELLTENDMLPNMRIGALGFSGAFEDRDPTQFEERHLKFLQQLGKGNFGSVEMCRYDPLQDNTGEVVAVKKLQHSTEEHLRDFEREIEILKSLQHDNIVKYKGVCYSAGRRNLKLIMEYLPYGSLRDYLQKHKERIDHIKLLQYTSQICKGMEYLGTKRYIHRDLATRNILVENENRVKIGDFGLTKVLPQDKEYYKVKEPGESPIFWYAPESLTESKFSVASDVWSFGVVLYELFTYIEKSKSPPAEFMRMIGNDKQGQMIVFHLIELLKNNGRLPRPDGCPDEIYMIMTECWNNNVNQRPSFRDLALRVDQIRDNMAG

Hck = Hck (UniProt P08631); experiment: as above
Hck, sequence (P08631 whole entry, looked up): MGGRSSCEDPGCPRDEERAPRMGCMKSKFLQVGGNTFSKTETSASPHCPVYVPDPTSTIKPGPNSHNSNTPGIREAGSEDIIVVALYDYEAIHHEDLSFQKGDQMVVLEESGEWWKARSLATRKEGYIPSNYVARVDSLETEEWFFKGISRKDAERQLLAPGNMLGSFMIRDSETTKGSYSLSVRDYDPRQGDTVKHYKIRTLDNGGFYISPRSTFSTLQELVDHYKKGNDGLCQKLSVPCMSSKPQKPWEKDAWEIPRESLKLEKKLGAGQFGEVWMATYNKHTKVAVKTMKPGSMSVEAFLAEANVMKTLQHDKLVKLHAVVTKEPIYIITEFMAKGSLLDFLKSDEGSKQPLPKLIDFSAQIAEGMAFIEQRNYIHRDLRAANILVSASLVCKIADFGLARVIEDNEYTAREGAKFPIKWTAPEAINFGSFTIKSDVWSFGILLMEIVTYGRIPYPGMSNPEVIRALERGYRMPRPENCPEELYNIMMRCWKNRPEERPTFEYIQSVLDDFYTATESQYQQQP

c-Abl (mouse) = experiment: as above
FGFR1 = FGFR1 (UniProt P11362); experiment: as above
FGFR1, sequence (P11362 whole entry, looked up): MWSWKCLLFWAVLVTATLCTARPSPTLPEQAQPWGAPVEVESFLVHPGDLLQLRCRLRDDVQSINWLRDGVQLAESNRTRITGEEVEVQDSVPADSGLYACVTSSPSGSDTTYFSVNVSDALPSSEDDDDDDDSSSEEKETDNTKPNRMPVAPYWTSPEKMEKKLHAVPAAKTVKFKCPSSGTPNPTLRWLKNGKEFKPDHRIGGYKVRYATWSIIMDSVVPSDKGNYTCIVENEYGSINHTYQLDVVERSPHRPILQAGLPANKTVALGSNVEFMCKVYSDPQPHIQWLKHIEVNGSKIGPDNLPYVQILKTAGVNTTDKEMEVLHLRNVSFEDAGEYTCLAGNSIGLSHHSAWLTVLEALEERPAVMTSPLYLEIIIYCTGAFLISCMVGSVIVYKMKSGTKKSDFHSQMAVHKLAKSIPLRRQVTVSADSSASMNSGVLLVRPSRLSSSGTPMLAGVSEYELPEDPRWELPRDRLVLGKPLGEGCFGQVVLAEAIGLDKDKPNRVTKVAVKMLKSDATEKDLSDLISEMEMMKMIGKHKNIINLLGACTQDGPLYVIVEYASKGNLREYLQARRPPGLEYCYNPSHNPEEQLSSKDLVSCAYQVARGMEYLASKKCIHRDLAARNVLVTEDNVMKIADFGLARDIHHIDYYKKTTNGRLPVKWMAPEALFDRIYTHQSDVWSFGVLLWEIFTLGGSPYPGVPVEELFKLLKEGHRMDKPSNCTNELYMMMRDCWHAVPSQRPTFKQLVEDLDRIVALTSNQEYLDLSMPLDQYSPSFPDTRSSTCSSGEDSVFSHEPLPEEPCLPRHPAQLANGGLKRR

EPHB1 = EPHB1 (UniProt P54762); experiment: as above
EPHB1, sequence (P54762 whole entry, looked up): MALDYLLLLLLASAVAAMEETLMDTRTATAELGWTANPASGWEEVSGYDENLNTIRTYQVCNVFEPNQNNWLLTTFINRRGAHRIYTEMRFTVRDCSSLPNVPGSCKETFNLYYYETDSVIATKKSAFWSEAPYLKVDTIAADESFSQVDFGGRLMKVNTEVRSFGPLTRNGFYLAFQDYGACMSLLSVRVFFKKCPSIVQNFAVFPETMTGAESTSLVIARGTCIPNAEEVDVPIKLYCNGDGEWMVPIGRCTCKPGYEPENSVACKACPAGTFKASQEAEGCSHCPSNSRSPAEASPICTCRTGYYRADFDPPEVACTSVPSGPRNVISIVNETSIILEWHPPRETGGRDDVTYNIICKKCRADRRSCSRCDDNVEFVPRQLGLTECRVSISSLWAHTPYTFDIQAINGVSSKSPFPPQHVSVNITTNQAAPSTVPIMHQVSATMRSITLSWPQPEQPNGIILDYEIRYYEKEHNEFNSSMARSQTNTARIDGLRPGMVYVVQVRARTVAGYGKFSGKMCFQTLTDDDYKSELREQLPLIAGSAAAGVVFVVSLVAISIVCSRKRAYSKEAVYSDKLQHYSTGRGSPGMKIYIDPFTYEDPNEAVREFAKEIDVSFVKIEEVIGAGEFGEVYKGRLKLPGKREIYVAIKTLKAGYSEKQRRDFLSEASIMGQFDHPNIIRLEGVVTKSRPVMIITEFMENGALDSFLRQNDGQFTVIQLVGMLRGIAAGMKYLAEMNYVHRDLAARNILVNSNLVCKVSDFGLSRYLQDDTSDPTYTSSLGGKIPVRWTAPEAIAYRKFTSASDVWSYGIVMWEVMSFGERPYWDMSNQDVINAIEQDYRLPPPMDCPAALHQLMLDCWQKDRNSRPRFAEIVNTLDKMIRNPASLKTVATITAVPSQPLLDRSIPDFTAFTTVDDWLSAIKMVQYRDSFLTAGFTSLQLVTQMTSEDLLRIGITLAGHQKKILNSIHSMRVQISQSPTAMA

EPHB2 = EPHB2 (UniProt P29323); experiment: as above
AncSZ = experiment: as above
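Throughout, for SH2 binding enrichment of the phosphorylated peptide, bacterial display: peptide library displayed on the E. coli surface as eCPX fusions, selected cells deep-sequenced, score is each peptide's frequency after selection divided by its frequency in the input.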
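Throughout, for phosphorylation enrichment, bacterial display: 11-residue human phosphosite peptides and single-mutation variants displayed on the E. coli surface, counted by deep sequencing, each peptide's frequency after selection divided by its frequency in the unselected input library; frequency after pTyr selection over input frequency; kinase dosed for 20-30% of maximal phosphorylation in three min.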

| Sequence | SH2 binding enrichment (c-Src SH2) | SH2 binding enrichment (Grb2 SH2) | SH2 binding enrichment (SHP2-C SH2) | phosphorylation enrichment (FGFR3) | phosphorylation enrichment (MERTK) | phosphorylation enrichment (Fer (mouse)) | phosphorylation enrichment (Fes) | phosphorylation enrichment (c-Src) | phosphorylation enrichment (Fyn) | phosphorylation enrichment (Jak2) | phosphorylation enrichment (Hck) | phosphorylation enrichment (c-Abl (mouse)) | phosphorylation enrichment (FGFR1) | phosphorylation enrichment (EPHB1) | phosphorylation enrichment (EPHB2) | phosphorylation enrichment (AncSZ) |
| --- | --- | --- | --- | --- | --- | --- | --- | --- | --- | --- | --- | --- | --- | --- | --- | --- |
| TNEYEYDELIV [TGM1_Y136_D132N] | 0.84 | 0.798 | 0.854 | 0.925 | 0.525 | 0.593 | 1.23 | 0.981 | 0.952 | 1.29 | 0.769 | 0.962 | 0.809 | 0.814 | 0.975 | 1.45 |
| FPLELYERVRI [PRKCG_Y312_M317I_YF] | 0.567 | 0.854 | 0.775 | 0.652 | 0.453 | 3.28 | 1.29 | 0.528 | 0.48 | 1.39 | 1.18 | 0.739 | 0.498 | 1.66 | 1.1 | 1.34 |
| KPEKTYGLRNE [CEP43_Y267_K271N] | 0.534 | 0.594 | 0.758 | 0.371 | 0.397 | 0.321 | 0.569 | 0.439 | 0.37 | 0.512 | 0.406 | 0.551 | 0.394 | 0.39 | 0.362 | 0.494 |
| SIKDKYVTALF [KCNH2_Y611_YF] | 0.433 | 0.8 | 0.693 | 0.488 | 0.471 | 0.441 | 0.846 | 0.502 | 0.465 | 0.742 | 0.498 | 0.668 | 0.525 | 0.449 | 0.5 | 0.684 |
| ARGMEYLAEQK [MST1R_Y1198_G1195S] | 0.524 | 0.741 | 0.603 | 0.826 | 0.435 | 0.384 | 0.914 | 0.381 | 0.491 | 0.77 | 0.46 | 0.599 | 0.39 | 0.488 | 0.47 | 0.807 |

Second part, led by results:

| SH2 binding enrichment (c-Src SH2) | SH2 binding enrichment (Grb2 SH2) | SH2 binding enrichment (SHP2-C SH2) | Sequence | phosphorylation enrichment (FGFR3) | phosphorylation enrichment (MERTK) | phosphorylation enrichment (Fer (mouse)) | phosphorylation enrichment (Fes) | phosphorylation enrichment (c-Src) | phosphorylation enrichment (Fyn) | phosphorylation enrichment (Jak2) | phosphorylation enrichment (Hck) | phosphorylation enrichment (c-Abl (mouse)) | phosphorylation enrichment (FGFR1) | phosphorylation enrichment (EPHB1) | phosphorylation enrichment (EPHB2) | phosphorylation enrichment (AncSZ) |
| --- | --- | --- | --- | --- | --- | --- | --- | --- | --- | --- | --- | --- | --- | --- | --- | --- |
| 1.39 | 1.03 | 1.03 | AVISVYDLVAV [PSEN1_Y256] | 0.577 | 6.38 | 13 | 1.2 | 4.51 | 6.35 | 0.82 | 6.2 | 0.753 | 0.429 | 6.18 | 4.92 | 1.24 |
| 0.634 | 1.04 | 0.754 | GRTNIYNNKKD [SLC26A3_Y520_K521N] | 0.349 | 0.301 | 0.326 | 0.632 | 0.435 | 0.347 | 0.691 | 0.365 | 0.433 | 0.324 | 0.311 | 0.339 | 0.418 |
| 0.742 | 0.991 | 1.16 | AALVQYYMEHH [PTPN11_Y80_E76A] | 0.767 | 0.68 | 0.415 | 0.912 | 0.541 | 0.529 | 0.745 | 0.813 | 0.49 | 0.722 | 1.9 | 1.17 | 0.937 |
| 1.11 | 0.956 | 0.804 | RGKLFYQEVPA [METTL11B_Y76_A72G] | 1.29 | 3.21 | 0.719 | 1.05 | 0.564 | 0.544 | 0.649 | 0.853 | 0.503 | 1.37 | 1.48 | 0.777 | 0.844 |
